This assay deals with D-galactose receptor (human (endogenous in SHIN3)). The experiment in a line: flow cytometry on cells. On the technique in general: A flow cytometer gives signals particle by particle.

Take “TAMRA conjugated avidin (from UniProt P02701 25-152) (ligand)”: the mean value of fluorescence (FACS flow cytometry) turned out to be 10.9.

Source of the values: paper PMC2743556.
